Like-named read-outs stand apart in the source and are kept apart here. Where a SMILES comes first, the peptide text is derived from it. Where no end group is shown, it is not given here. [ ]: non-standard residue; d: D form. The star is where a group is joined. Palmitoyl = CCCCCCCCCCCCCCCC(=O)*; Tridecanoyl = CCCCCCCCCCCCC(=O)*; Myristoyl = CCCCCCCCCCCCCC(=O)*; NMeA = CN[C@@H](C)C(=O)O; Nle = CCCC[C@H](N)C(=O)O; Dap = NC[C@H](N)C(=O)O; Sar = CNCC(=O)O

Experiment [1] addresses T1, rat PrRP receptor (GPR10) in RC-4B/C cells (Rattus norvegicus, UniProt Q64121).
T1 construct: host or cells: RC-4B/C rat pituitary cell line
T1 sequence (Q64121 1-370): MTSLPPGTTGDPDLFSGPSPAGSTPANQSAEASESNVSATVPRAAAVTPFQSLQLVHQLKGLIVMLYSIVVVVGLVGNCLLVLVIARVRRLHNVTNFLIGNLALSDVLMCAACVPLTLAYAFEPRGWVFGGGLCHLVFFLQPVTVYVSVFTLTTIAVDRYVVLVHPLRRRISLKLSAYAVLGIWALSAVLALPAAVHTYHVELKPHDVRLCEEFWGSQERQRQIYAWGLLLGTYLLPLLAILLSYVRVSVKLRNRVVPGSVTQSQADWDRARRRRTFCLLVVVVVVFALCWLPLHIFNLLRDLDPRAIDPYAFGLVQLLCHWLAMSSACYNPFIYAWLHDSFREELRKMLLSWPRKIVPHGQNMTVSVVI
Nature of the experiment: Competitive binding to rat pituitary RC-4B/C cells. How it is done: Competitive binding experiments were performed according to Motulsky and Neubig (Motulsky, A., et al., “Analyzing radioligand binding data,” Curr Protoc Neurosci, Chapter 7, Unit 7.5, 2002). The rat pituitary cell line RC-4B/C (ATCC, Manassas, USA) was grown on 24-well plates which had their bottom coated with polyethyleneimine. The cells were grown to the optimal density of 300-450 thousand per well. […] Plates were incubated for 60 minutes at room temperature. After incubation, the cells were solubilized in 0.1 mol/l solution of NaOH and the radioactivity bound to the cells was counted using a γ-counter. The experiments were performed in duplicate and repeated at least three times. For evaluation of competitive binding experiments, the program Graph Pad Prism Software (San Diego, Calif., USA) was used. A method of nonlinear regression assuming one-site binding was used.

In a further experiment the test system is fasted C57BL/6 mice. In words: Food intake in fasted mice after SC administration. The format is in vivo, mouse. Conditions: fasted C57BL/6 mice, 5 mg/kg SC, 45 min. Put shortly:
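Male C57BL/6 mice, food-deprived 17 h, received saline, PrRP or lipidated analogs either SC at 1-10 mg/kg or ICV into the third ventricle at 4 nmol/mouse.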

Experiment [2] has as its target T2, rat PrRP receptor in RC-4B/C cells (rat, UniProt Q64121 1-370).
T2 construct: whole, on cells; also called the rat receptor; GPR10
T2 sequence (looked up): T1 sequence (Q64121 1-370)
In words: competition with 125I-rat PrRP31 on RC-4B/C cells. On the procedure: (§1) The rat pituitary cell line RC-4B/C (ATCC, Manassas, USA) was grown on 24-well plates which had their bottom coated with polyethyleneimine. The cells were grown to the optimal density of 300-450 thousand per well.
(§2) Plates were incubated for 60 minutes at room temperature. After incubation, the cells were solubilized in 0.1 mol/l solution of NaOH and the radioactivity bound to the cells was counted using a γ-counter. The experiments were performed in duplicate and repeated at least three times.

Experiment [3] addresses T2, rat PrRP receptor in RC-4B/C cells. In words: competition with 125I-rat PrRP31 on RC-4B/C cells; Ki by Cheng-Prusoff. On the procedure:
as §1, §2
For evaluation of competitive binding experiments, the program Graph Pad Prism Software (San Diego, Calif., USA) was used. A method of nonlinear regression assuming one-site binding was used.

The target is the same in experiment [4]. Nature of the experiment: competition with 125I-rat PrRP31 on RC-4B/C cells. This is another data set of the same source.
In experiment [5] the target is T3, human PrRP receptor, GPR10, transfected in CHO cells (human, UniProt P49683 1-370).
T3 construct: whole, on cells; also called human GPR10 receptor; the human receptor GPR10 in CHO cells
T3 sequence (looked up): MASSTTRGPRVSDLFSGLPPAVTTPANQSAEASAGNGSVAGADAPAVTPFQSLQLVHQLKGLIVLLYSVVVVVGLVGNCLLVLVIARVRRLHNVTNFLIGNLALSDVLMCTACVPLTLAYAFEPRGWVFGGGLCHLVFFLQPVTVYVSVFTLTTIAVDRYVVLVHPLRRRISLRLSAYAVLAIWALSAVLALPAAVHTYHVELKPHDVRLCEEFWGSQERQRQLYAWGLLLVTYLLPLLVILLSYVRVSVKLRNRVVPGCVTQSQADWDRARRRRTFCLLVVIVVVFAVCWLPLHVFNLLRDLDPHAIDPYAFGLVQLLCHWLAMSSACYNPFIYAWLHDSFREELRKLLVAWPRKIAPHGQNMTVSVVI
Nature of the experiment: competition with 125I-human PrRP31 on CHO cells with transfected human GPR10. Put shortly: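 Incubation lasted 60 min at room temperature. Cells were then solubilised in 0.1 mol/l NaOH and bound radioactivity γ-counted; duplicates, at least three repeats.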

[6] abbreviates: rat RC-4B/C cells, Table 5, read-out: C-4B/C cells ^25I-rat PrRP31 Ki.

In the case of `CCCCCCCCCCCCCCCC(=O)N[C@@H](CO)C(=O)N[C@@H](CCCNC(=N)N)C(=O)N[C@@H](C)C(=O)N[C@@H](Cc1c[nH]cn1)C(=O)N[C@@H](CCC(N)=O)C(=O)N[C@@H](Cc1c[nH]cn1)C(=O)N[C@@H](CO)C(=O)N[C@@H](CCSC)C(=O)N[C@@H](CCC(=O)O)C(=O)N[C@H](C(=O)N[C@@H](CCCNC(=N)N)C(=O)N[C@H](C(=O)N1CCC[C@H]1C(=O)N[C@@H](CC(=O)O)C(=O)N[C@H](C(=O)N[C@@H](CC(N)=O)C(=O)N1CCC[C@H]1C(=O)N[C@@H](C)C(=O)N[C@@H](Cc1c[nH]c2ccccc12)C(=O)N[C@@H](Cc1ccc(O)cc1)C(=O)N[C@H](C(=O)NCC(=O)N[C@@H](CCCNC(=N)N)C(=O)NCC(=O)N[C@H](C(=O)N[C@@H](CCCNC(=N)N)C(=O)N1CCC[C@H]1C(=O)N[C@H](C(=O)NCC(=O)N[C@@H](CCCNC(=N)N)C(=O)N[C@@H](Cc1ccccc1)C(N)=O)C(C)C)[C@@H](C)CC)[C@@H](C)O)[C@@H](C)CC)[C@@H](C)O)[C@@H](C)O` [Analog 61] (Palmitoyl-SRAHQHSMETRTPDINPAWYTGRGIRPVGRF-NH2), in experiment [1] (setting [6]), the Ki amounted to 0.41 ± 0.12 nM. In addition, the “Food intake in mice (5 mg/kg SC) % saline-treated group (45 min)” value in the experiment with fasted C57BL/6 mice is on record as 2%.
As to `CCCCCCCCCCCCCCCC(=O)N[C@@H](CO)C(=O)N[C@@H](CCCNC(=N)N)C(=O)N[C@@H](C)C(=O)N[C@@H](Cc1c[nH]cn1)C(=O)N[C@@H](CCC(N)=O)C(=O)N[C@@H](Cc1c[nH]cn1)C(=O)N[C@@H](CO)C(=O)N[C@@H](CCCC)C(=O)N[C@@H](CCC(=O)O)C(=O)N[C@H](C(=O)N[C@@H](CCCNC(=N)N)C(=O)N[C@H](C(=O)N1CCC[C@H]1C(=O)N[C@@H](CC(=O)O)C(=O)N[C@H](C(=O)N[C@@H](CC(N)=O)C(=O)N1CCC[C@H]1C(=O)N[C@@H](C)C(=O)N[C@@H](Cc1c[nH]c2ccccc12)C(=O)N[C@@H](Cc1ccc(O)cc1)C(=O)N[C@H](C(=O)NCC(=O)N[C@@H](CCCNC(=N)N)C(=O)NCC(=O)N[C@H](C(=O)N[C@@H](CCCNC(=N)N)C(=O)N1CCC[C@H]1C(=O)N[C@H](C(=O)NCC(=O)N[C@@H](CCCNC(=N)N)C(=O)N[C@@H](Cc1ccccc1)C(N)=O)C(C)C)[C@@H](C)CC)[C@@H](C)O)[C@@H](C)CC)[C@@H](C)O)[C@@H](C)O` [Analog 19] (Palmitoyl-SRAHQHS[Nle]ETRTPDINPAWYTGRGIRPVGRF-NH2), the Ki in experiment [1] (setting [6]) came to 0.51 ± 0.16 nM. The “Food intake in mice (5 mg/kg SC) % saline-treated group (45 min)” value with fasted C57BL/6 mice is given as 2%.
In the case of `CCCCCCCCCCCCCC(=O)N[C@H](C(=O)N1CCC[C@H]1C(=O)N[C@@H](CC(=O)O)C(=O)N[C@H](C(=O)N[C@@H](CC(N)=O)C(=O)N1CCC[C@H]1C(=O)N[C@@H](C)C(=O)N[C@@H](Cc1c[nH]c2ccccc12)C(=O)N[C@@H](Cc1ccc(O)cc1)C(=O)N(C)[C@@H](C)C(=O)N[C@@H](CO)C(=O)N[C@@H](CCCNC(=N)N)C(=O)NCC(=O)N[C@H](C(=O)N[C@@H](CCCNC(=N)N)C(=O)N1CCC[C@H]1C(=O)N[C@H](C(=O)NCC(=O)N[C@@H](CCCNC(=N)N)C(=O)N[C@@H](Cc1ccccc1)C(N)=O)C(C)C)[C@@H](C)CC)[C@@H](C)CC)[C@@H](C)O` [Analog 41] (Myristoyl-TPDINPAWY[NMeA]SRGIRPVGRF-NH2), the Ki in experiment [1] (setting [6]) is 0.46 ± 0.05 nM.
On to `CCCCCCCCCCCCCC(=O)N[C@H](C(=O)N1CCC[C@H]1C(=O)N[C@@H](CC(=O)O)C(=O)N[C@H](C(=O)N[C@@H](CC(N)=O)C(=O)N1CCC[C@H]1C(=O)N[C@@H](C)C(=O)N[C@@H](Cc1c[nH]c2ccccc12)C(=O)N[C@@H](Cc1ccc(O)cc1)C(=O)N[C@@H](C)C(=O)N[C@@H](CO)C(=O)N[C@@H](CCCNC(=N)N)C(=O)NCC(=O)N[C@H](C(=O)N[C@@H](CCCNC(=N)N)C(=O)N1CCC[C@H]1C(=O)N[C@H](C(=O)NCC(=O)N[C@@H](CCCNC(=N)N)C(=O)N[C@@H](Cc1ccccc1)C(N)=O)C(C)C)[C@@H](C)CC)[C@@H](C)CC)[C@@H](C)O` [Analog 13] (Myristoyl-TPDINPAWYASRGIRPVGRF-NH2), for which the Ki in experiment [1] (^125I-rat PrRP31, RC-4B/C cells, Table 3, read-out: ^125I-rat PrRP31 Ki) was found to be 0.41 ± 0.13 nM.

B1: analog no. 4 (peptide)
peptide: [Dap](Tridecanoyl)RAHQHS[Nle]ETRTPDINPAWYTGRGIRPVGRF-NH2
modifications: N-terminus assumed
SMILES: CCCCCCCCCCCCC(=O)NC[C@H](N)C(=O)N[C@@H](CCCNC(=N)N)C(=O)N[C@@H](C)C(=O)N[C@@H](Cc1c[nH]cn1)C(=O)N[C@@H](CCC(N)=O)C(=O)N[C@@H](Cc1c[nH]cn1)C(=O)N[C@@H](CO)C(=O)N[C@@H](CCCC)C(=O)N[C@@H](CCC(=O)O)C(=O)N[C@H](C(=O)N[C@@H](CCCNC(=N)N)C(=O)N[C@H](C(=O)N1CCC[C@H]1C(=O)N[C@@H](CC(=O)O)C(=O)N[C@H](C(=O)N[C@@H](CC(N)=O)C(=O)N1CCC[C@H]1C(=O)N[C@@H](C)C(=O)N[C@@H](Cc1c[nH]c2ccccc12)C(=O)N[C@@H](Cc1ccc(O)cc1)C(=O)N[C@H](C(=O)NCC(=O)N[C@@H](CCCNC(=N)N)C(=O)NCC(=O)N[C@H](C(=O)N[C@@H](CCCNC(=N)N)C(=O)N1CCC[C@H]1C(=O)N[C@H](C(=O)NCC(=O)N[C@@H](CCCNC(=N)N)C(=O)N[C@@H](Cc1ccccc1)C(N)=O)C(C)C)[C@@H](C)CC)[C@@H](C)O)[C@@H](C)CC)[C@@H](C)O)[C@@H](C)O
notes: analog of rat PrRP31
In the case of B1, the “% of PrRP31 binding” value in experiment [2] amounted to 967%. This molecule also returned a Ki in experiment [3] of 0.51 nM.
As for TPDINPAWYTGRGIRPVGRF-NH2 [Rat PrRP20], the “% of PrRP31 binding” value in experiment [2] stood at 143%. In experiment [3], this molecule displayed a Ki of 3.44 nM.

B2: analog no. 39 (peptide)
peptide: Myristoyl-TPDINPAWYTGR[Sar]IRPVGRF-NH2
SMILES: CCCCCCCCCCCCCC(=O)N[C@H](C(=O)N1CCC[C@H]1C(=O)N[C@@H](CC(=O)O)C(=O)N[C@H](C(=O)N[C@@H](CC(N)=O)C(=O)N1CCC[C@H]1C(=O)N[C@@H](C)C(=O)N[C@@H](Cc1c[nH]c2ccccc12)C(=O)N[C@@H](Cc1ccc(O)cc1)C(=O)N[C@H](C(=O)NCC(=O)N[C@@H](CCCNC(=N)N)C(=O)N(C)CC(=O)N[C@H](C(=O)N[C@@H](CCCNC(=N)N)C(=O)N1CCC[C@H]1C(=O)N[C@H](C(=O)NCC(=O)N[C@@H](CCCNC(=N)N)C(=O)N[C@@H](Cc1ccccc1)C(N)=O)C(C)C)[C@@H](C)CC)[C@@H](C)O)[C@@H](C)CC)[C@@H](C)O
Consider B2, for which the Ki was found to be 0.32 nM in experiment [4] and 3.12 nM in experiment [5].

B3: analog no. 41 (peptide)
peptide: Myristoyl-TPDINPAWY[NMeA]SRGIRPVGRF-NH2
SMILES: CCCCCCCCCCCCCC(=O)N[C@H](C(=O)N1CCC[C@H]1C(=O)N[C@@H](CC(=O)O)C(=O)N[C@H](C(=O)N[C@@H](CC(N)=O)C(=O)N1CCC[C@H]1C(=O)N[C@@H](C)C(=O)N[C@@H](Cc1c[nH]c2ccccc12)C(=O)N[C@@H](Cc1ccc(O)cc1)C(=O)N(C)[C@@H](C)C(=O)N[C@@H](CO)C(=O)N[C@@H](CCCNC(=N)N)C(=O)NCC(=O)N[C@H](C(=O)N[C@@H](CCCNC(=N)N)C(=O)N1CCC[C@H]1C(=O)N[C@H](C(=O)NCC(=O)N[C@@H](CCCNC(=N)N)C(=O)N[C@@H](Cc1ccccc1)C(N)=O)C(C)C)[C@@H](C)CC)[C@@H](C)CC)[C@@H](C)O
B3: the results for the Ki in experiment [4] and in experiment [5] were 0.46 nM and 2.1 nM, respectively.

The values above are taken from patent US9937235B2, “Lipidated peptides as anti-obesity agents” (USTAV ORGANICKE CHEMIE A BIOCHEMIE AKADEMIE VED CR, V.V.I, priority 2012, dated 2018).
